From publication PMC4813677

Target: pyruvate kinase M2 (PKM2) (human (endogenous in monocytes and macrophages)) (UniProt P14618)
Experiment: cross-linking

Chain of pyruvate kinase M2 (PKM2), P14618 1-531 (enzyme; other documents disagree on this pair) (P14618 whole entry): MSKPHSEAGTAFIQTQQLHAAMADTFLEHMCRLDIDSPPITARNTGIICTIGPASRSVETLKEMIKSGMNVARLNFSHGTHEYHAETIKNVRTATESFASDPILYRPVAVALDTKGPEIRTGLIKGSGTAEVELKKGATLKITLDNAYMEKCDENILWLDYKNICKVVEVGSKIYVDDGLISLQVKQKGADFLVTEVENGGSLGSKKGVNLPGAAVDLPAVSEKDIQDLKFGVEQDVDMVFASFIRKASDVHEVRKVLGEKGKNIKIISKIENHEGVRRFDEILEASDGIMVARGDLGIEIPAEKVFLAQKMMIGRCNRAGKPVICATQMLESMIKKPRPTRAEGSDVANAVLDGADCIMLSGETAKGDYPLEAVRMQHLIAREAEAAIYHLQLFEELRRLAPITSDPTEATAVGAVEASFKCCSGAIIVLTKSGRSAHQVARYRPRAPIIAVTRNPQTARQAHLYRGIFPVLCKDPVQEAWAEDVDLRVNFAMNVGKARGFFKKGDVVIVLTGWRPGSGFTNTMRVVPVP

pyruvate kinase M2 (PKM2), P14618 1-531 (enzyme; other documents disagree on this pair)
stoichiometry N: 2
